± gives the standard deviation of the averaged measurements.
Experiments:
Saccharomyces cerevisiae [1] = experiment: protein stability index of tFT-peptide fusion (C-terminal peptide) (PSI (0-1 scale)); higher = more stable (slower turnover)
Method: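 MPS profiling in S. cerevisiae of the tFT-X12 degron library: putative degron peptides plus stable controls, 12 aa, fused to the C-terminus of a sfGFP-mCherry timer. Cells are FACS-sorted into 8 mCherry/sfGFP bins and deep-sequenced. PSI runs from 0 (unstable) to 1 (stable). Backgrounds are wild type, das1Δ and doa10Δ at 30 °C, and wild type, das1Δ, cdc34-1 and cdc53-1 at 37 °C; 2-3 technical replicates each.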

Saccharomyces cerevisiae [2] = experiment: as above; conditions: genetic background: wild type; temperature: 30 C
[3] = genetic background: cdc34-1, temperature: 37 C
[4] = genetic background: cdc53-1, temperature: 37 C
[5] = genetic background: das1 deletion, temperature: 30 C
[6] = genetic background: das1 deletion, temperature: 37 C
[7] = genetic background: doa10 deletion, temperature: 30 C
[8] = genetic background: wild type, temperature: 30 C
[9] = genetic background: wild type, temperature: 37 C
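Further: PSI is a weighted mean of sequencing reads over stability bins, variants kept only with over 10 reads, mCherry proximal and sfGFP distal, peptide attached via GGGS linker.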

| Sequence | protein stability index (Saccharomyces cerevisiae [1]; [3]) | protein stability index (Saccharomyces cerevisiae [1]; [4]) | protein stability index (Saccharomyces cerevisiae [1]; [5]) | protein stability index (Saccharomyces cerevisiae [1]; [6]) | protein stability index (Saccharomyces cerevisiae [1]; [7]) | protein stability index (Saccharomyces cerevisiae [1]; [8]) | protein stability index (Saccharomyces cerevisiae [1]; [9]) | protein stability index (Saccharomyces cerevisiae [2]) |
| --- | --- | --- | --- | --- | --- | --- | --- | --- |
| ISVSVVFFVLRF | 0.27578 ± 0.00014 | 0.369 ± 0.031 | 0.265 ± 0.041 | 0.429 ± 0.015 | 0.294 ± 0.017 | 0.279 ± 0.019 | 0.411 ± 0.011 | 0.3965 ± 0.0021 |
| IYPPVSVTNLLV | 0.6646 ± 0.0022 | 0.723 ± 0.0079 | 0.646 ± 0.036 | 0.723 ± 0.014 | 0.227 ± 0.029 | 0.255 ± 0.032 | 0.461 ± 0.0062 | 0.357 ± 0.1 |
| KAEKNSKKTSTE | 0.685 ± 0.073 | 0.721 ± 0.013 | 0.658 ± 0.064 | 0.68229 ± 0.0003 | 0.633 ± 0.031 | 0.649 ± 0.033 | 0.702 ± 0.021 | 0.698 ± 0.044 |
| KALSSSYFGTRL | 0.69 ± 0.025 | 0.745 ± 0.015 | 0.648 ± 0.014 | 0.743 ± 0.0082 | 0.649 ± 0.019 | 0.6755 ± 0.0058 | 0.7128 ± 0.007 | 0.735 ± 0.062 |
| KCEKGLYCCIAF | 0.608 ± 0.055 | 0.68 ± 0.036 | 0.518 ± 0.031 | 0.664 ± 0.0099 | 0.516 ± 0.025 | 0.534 ± 0.027 | 0.626 ± 0.018 | 0.504 ± 0.073 |
| KEKGVTKIRISS | 0.6166 ± 0.0019 | 0.6861 ± 0.0021 | 0.632 ± 0.024 | 0.7071 ± 0.0024 | 0.1724 ± 0.00028 | 0.195 ± 0.037 | 0.377 ± 0.024 | 0.295 ± 0.0055 |
| KEKKKTKHNKIG | 0.587 ± 0.059 | 0.7521 ± 0.0072 | 0.631 ± 0.014 | 0.742 ± 0.011 | 0.184 ± 0.029 | 0.155 ± 0.032 | 0.314 ± 0.02 | 0.216 ± 0.038 |
| KIVNNTKKNKCH | 0.638 ± 0.048 | 0.684 ± 0.0087 | 0.652 ± 0.039 | 0.738 ± 0.012 | 0.153 ± 0.021 | 0.195 ± 0.046 | 0.26 ± 0.058 | 0.226 ± 0.025 |
| KLALVYLLIRGL | 0.423 ± 0.015 | 0.496 ± 0.028 | 0.366 ± 0.031 | 0.5681 ± 0.00085 | 0.0641 ± 0.01 | 0.0862 ± 0.02 | 0.0975 ± 0.0076 | 0.125 ± 0.06 |
| KLLGVLFVLFPG | 0.486 ± 0.012 | 0.599 ± 0.034 | 0.367 ± 0.031 | 0.569 ± 0.01 | 0.324 ± 0.0068 | 0.336 ± 0.026 | 0.527 ± 0.018 | 0.443 ± 0.017 |
| KLRIVYAKVVCS | 0.547 ± 0.044 | 0.592 ± 0.025 | 0.511 ± 0.029 | 0.613 ± 0.0069 | 0.247 ± 0.019 | 0.274 ± 0.015 | 0.407 ± 0.067 | 0.348 ± 0.055 |
| KSEKTYTYQVIQ | 0.682 ± 0.022 | 0.749 ± 0.027 | 0.622 ± 0.023 | 0.7159 ± 0.0055 | 0.329 ± 0.031 | 0.37 ± 0.027 | 0.5757 ± 0.005 | 0.453 ± 0.0059 |
| KVALWRRGVLAA | 0.363 ± 0.028 | 0.387 ± 0.013 | 0.257 ± 0.037 | 0.476 ± 0.011 | 0.142 ± 0.0064 | 0.161 ± 0.02 | 0.286 ± 0.0099 | 0.231 ± 0.007 |
| LCGYVGVVVCLV | 0.282 ± 0.012 | 0.307 ± 0.027 | 0.243 ± 0.029 | 0.433 ± 0.0061 | 0.175 ± 0.0034 | 0.209 ± 0.021 | 0.352 ± 0.015 | 0.307 ± 0.019 |
| LCIRHFRLLELL | 0.5607 ± 0.0046 | 0.72 ± 0.014 | 0.642 ± 0.033 | 0.728 ± 0.041 | 0.165 ± 0.011 | 0.167 ± 0.016 | 0.268 ± 0.021 | 0.276 ± 0.0069 |
| LCSYSTIPLRLY | 0.619 ± 0.034 | 0.726 ± 0.013 | 0.614 ± 0.019 | 0.695 ± 0.022 | 0.188 ± 0.0019 | 0.231 ± 0.021 | 0.48 ± 0.013 | 0.329 ± 0.035 |
| LCWASLLIVYLP | 0.397 ± 0.014 | 0.4614 ± 0.0036 | 0.311 ± 0.03 | 0.50382 ± 0.0004 | 0.27 ± 0.017 | 0.278 ± 0.032 | 0.463 ± 0.0039 | 0.392 ± 0.011 |
| LEYCLATYLSAC | 0.3382 ± 0.00047 | 0.435 ± 0.013 | 0.25 ± 0.035 | 0.43854 ± 0.00041 | 0.211 ± 0.0025 | 0.248 ± 0.016 | 0.4386 ± 0.00068 | 0.378 ± 0.0073 |
| LFFSFLFLATRC | 0.248 ± 0.012 | 0.209 ± 0.018 | 0.254 ± 0.045 | 0.39184 ± 0.00039 | 0.2246 ± 0.00043 | 0.193 ± 0.019 | 0.311 ± 0.016 | 0.236 ± 0.037 |
| LFFVCSGVVFSF | 0.514 ± 0.052 | 0.5482 ± 0.0011 | 0.407 ± 0.03 | 0.5829 ± 0.0055 | 0.38 ± 0.01 | 0.384 ± 0.031 | 0.558 ± 0.011 | 0.507 ± 0.04 |

| Sequence | protein stability index (Saccharomyces cerevisiae [1]; [3]) | protein stability index (Saccharomyces cerevisiae [1]; [4]) | protein stability index (Saccharomyces cerevisiae [1]; [5]) | protein stability index (Saccharomyces cerevisiae [1]; [6]) | protein stability index (Saccharomyces cerevisiae [1]; [7]) | protein stability index (Saccharomyces cerevisiae [1]; [8]) | protein stability index (Saccharomyces cerevisiae [1]; [9]) | protein stability index (Saccharomyces cerevisiae [2]) |
| --- | --- | --- | --- | --- | --- | --- | --- | --- |
| LFGFLCVVMCCG | 0.533 ± 0.014 | 0.521 ± 0.0067 | 0.44 ± 0.02 | 0.511 ± 0.03 | 0.412 ± 0.023 | 0.4422 ± 0.00067 | 0.485 ± 0.034 | 0.434 ± 0.028 |
| LFLFFFLPPLLF | 0.4247 ± 0.0027 | 0.407 ± 0.0056 | 0.373 ± 0.025 | 0.484 ± 0.021 | 0.439 ± 0.018 | 0.366 ± 0.009 | 0.461 ± 0.026 | 0.446 ± 0.028 |
| LFLSFLLLYFRP | 0.269 ± 0.019 | 0.219 ± 0.022 | 0.311 ± 0.037 | 0.4223 ± 0.0015 | 0.439 ± 0.021 | 0.313 ± 0.015 | 0.402 ± 0.0086 | 0.351 ± 0.039 |
| LFMRGEDEMFSV | 0.722 ± 0.052 | 0.758 ± 0.024 | 0.658 ± 0.01 | 0.7826 ± 0.0013 | 0.668 ± 0.012 | 0.672 ± 0.022 | 0.766 ± 0.036 | 0.746 ± 0.018 |
| LFPLFTLIFVHL | 0.224 ± 0.016 | 0.212 ± 0.017 | 0.265 ± 0.023 | 0.4169 ± 0.0011 | 0.119 ± 0.025 | 0.115 ± 0.019 | 0.1696 ± 0.00078 | 0.1989 ± 0.00028 |
| LFTRSIRNLKSL | 0.653 ± 0.057 | 0.7269 ± 0.007 | 0.664 ± 0.0086 | 0.738 ± 0.02 | 0.303 ± 0.0033 | 0.291 ± 0.0074 | 0.4521 ± 0.0027 | 0.452 ± 0.033 |
| LFVFVISSSSFP | 0.442 ± 0.0068 | 0.539 ± 0.035 | 0.321 ± 0.025 | 0.553 ± 0.0059 | 0.291 ± 0.022 | 0.306 ± 0.025 | 0.503 ± 0.015 | 0.395 ± 0.04 |
| LFWCCVGLSVWR | 0.367 ± 0.063 | 0.474 ± 0.026 | 0.318 ± 0.022 | 0.5026 ± 0.0031 | 0.278 ± 0.0092 | 0.31 ± 0.016 | 0.494 ± 0.023 | 0.43 ± 0.011 |
| LFWPPCYLFFCL | 0.446 ± 0.034 | 0.508 ± 0.052 | 0.473 ± 0.039 | 0.677 ± 0.045 | 0.393 ± 0.03 | 0.324 ± 0.027 | 0.437 ± 0.024 | 0.389 ± 0.031 |
| LFWTLSKYLIIC | 0.284 ± 0.015 | 0.42 ± 0.024 | 0.34 ± 0.04 | 0.491 ± 0.011 | 0.0759 ± 0.0053 | 0.108 ± 0.013 | 0.159 ± 0.083 | 0.135 ± 0.079 |
| LGFFIFSFLILK | 0.0638 ± 0.017 | 0.0569 ± 0.025 | 0.189 ± 0.031 | 0.235 ± 0.011 | 0.263 ± 0.017 | 0.124 ± 0.036 | 0.221 ± 0.057 | 0.25 ± 0.015 |
| LGFHFFFTLIFF | 0.284 ± 0.054 | 0.274 ± 0.0087 | 0.279 ± 0.04 | 0.4 ± 0.031 | 0.4518 ± 0.0032 | 0.305 ± 0.039 | 0.37 ± 0.042 | 0.381 ± 0.03 |
| LGLLIFQWARVL | 0.302 ± 0.015 | 0.5 ± 0.0084 | 0.405 ± 0.026 | 0.553 ± 0.0056 | 0.0666 ± 0.012 | 0.0808 ± 0.016 | 0.092 ± 0.0037 | 0.12 ± 0.035 |
| LGVVVGGVRGVG | 0.43 ± 0.04 | 0.49 ± 0.0086 | 0.461 ± 0.012 | 0.505 ± 0.0054 | 0.467 ± 0.012 | 0.46 ± 0.025 | 0.4913 ± 0.0033 | 0.448 ± 0.045 |
| LHRLRFTLVQVS | 0.171 ± 0.0037 | 0.196 ± 0.036 | 0.228 ± 0.032 | 0.32664 ± 0.00013 | 0.127 ± 0.018 | 0.163 ± 0.021 | 0.2 ± 0.0028 | 0.223 ± 0.022 |
| LIAPSACNLFLF | 0.639 ± 0.04 | 0.7535 ± 0.0061 | 0.682 ± 0.015 | 0.7584 ± 0.0066 | 0.288 ± 0.0042 | 0.308 ± 0.018 | 0.5569 ± 0.005 | 0.412 ± 0.032 |
| LIRDLLYMAVLV | 0.249 ± 0.015 | 0.258 ± 0.016 | 0.295 ± 0.019 | 0.357 ± 0.018 | 0.32 ± 0.0083 | 0.281 ± 0.039 | 0.329 ± 0.0044 | 0.38 ± 0.019 |
| LISRLVLVFVIP | 0.3804 ± 0.00059 | 0.443 ± 0.012 | 0.287 ± 0.032 | 0.529 ± 0.0056 | 0.284 ± 0.021 | 0.272 ± 0.026 | 0.4696 ± 0.0045 | 0.38 ± 0.011 |
| LIVCVKAITIVS | 0.0266 ± 0.0046 | 0.0452 ± 0.011 | 0.0357 ± 0.0096 | 0.0917 ± 0.019 | 0.0226 ± 0.0029 | 0.0194 ± 0.0031 | 0.0521 ± 0.031 | 0.0363 ± 0.015 |
